In US20190134153A1, “IMMUNOMODULATORY EFFECT OF INHALED KINASE INHIBITOR PEPTIDES IN LUNG” (MOERAE MATRIX, INC., priority 2017, published 2019):

Experiments:
Assay in all cases: Kinase Profiling Assay
Format in all cases: biochemical
Settings in all cases: 100 μM
ALK4(h) = molecular target: T1, ALK4(h) (Homo sapiens, UniProt P36896)
T1 sequence (P36896 24-505): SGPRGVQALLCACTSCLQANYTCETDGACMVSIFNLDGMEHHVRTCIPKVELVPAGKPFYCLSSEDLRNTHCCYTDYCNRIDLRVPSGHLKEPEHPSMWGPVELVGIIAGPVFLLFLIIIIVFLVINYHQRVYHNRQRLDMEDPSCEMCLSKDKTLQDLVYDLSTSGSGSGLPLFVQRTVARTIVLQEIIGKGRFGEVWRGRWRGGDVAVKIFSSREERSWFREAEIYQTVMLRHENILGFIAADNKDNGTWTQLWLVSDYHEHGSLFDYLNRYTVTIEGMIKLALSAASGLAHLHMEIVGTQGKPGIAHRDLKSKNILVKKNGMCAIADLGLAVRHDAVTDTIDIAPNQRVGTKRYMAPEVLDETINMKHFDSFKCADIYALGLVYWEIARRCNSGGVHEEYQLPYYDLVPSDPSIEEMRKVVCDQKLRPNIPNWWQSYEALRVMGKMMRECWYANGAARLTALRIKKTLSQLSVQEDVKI

ROCK-II(h) = ROCK-II(h) (Homo sapiens, UniProt O75116)
Chain of ROCK-II(h) (O75116 whole entry): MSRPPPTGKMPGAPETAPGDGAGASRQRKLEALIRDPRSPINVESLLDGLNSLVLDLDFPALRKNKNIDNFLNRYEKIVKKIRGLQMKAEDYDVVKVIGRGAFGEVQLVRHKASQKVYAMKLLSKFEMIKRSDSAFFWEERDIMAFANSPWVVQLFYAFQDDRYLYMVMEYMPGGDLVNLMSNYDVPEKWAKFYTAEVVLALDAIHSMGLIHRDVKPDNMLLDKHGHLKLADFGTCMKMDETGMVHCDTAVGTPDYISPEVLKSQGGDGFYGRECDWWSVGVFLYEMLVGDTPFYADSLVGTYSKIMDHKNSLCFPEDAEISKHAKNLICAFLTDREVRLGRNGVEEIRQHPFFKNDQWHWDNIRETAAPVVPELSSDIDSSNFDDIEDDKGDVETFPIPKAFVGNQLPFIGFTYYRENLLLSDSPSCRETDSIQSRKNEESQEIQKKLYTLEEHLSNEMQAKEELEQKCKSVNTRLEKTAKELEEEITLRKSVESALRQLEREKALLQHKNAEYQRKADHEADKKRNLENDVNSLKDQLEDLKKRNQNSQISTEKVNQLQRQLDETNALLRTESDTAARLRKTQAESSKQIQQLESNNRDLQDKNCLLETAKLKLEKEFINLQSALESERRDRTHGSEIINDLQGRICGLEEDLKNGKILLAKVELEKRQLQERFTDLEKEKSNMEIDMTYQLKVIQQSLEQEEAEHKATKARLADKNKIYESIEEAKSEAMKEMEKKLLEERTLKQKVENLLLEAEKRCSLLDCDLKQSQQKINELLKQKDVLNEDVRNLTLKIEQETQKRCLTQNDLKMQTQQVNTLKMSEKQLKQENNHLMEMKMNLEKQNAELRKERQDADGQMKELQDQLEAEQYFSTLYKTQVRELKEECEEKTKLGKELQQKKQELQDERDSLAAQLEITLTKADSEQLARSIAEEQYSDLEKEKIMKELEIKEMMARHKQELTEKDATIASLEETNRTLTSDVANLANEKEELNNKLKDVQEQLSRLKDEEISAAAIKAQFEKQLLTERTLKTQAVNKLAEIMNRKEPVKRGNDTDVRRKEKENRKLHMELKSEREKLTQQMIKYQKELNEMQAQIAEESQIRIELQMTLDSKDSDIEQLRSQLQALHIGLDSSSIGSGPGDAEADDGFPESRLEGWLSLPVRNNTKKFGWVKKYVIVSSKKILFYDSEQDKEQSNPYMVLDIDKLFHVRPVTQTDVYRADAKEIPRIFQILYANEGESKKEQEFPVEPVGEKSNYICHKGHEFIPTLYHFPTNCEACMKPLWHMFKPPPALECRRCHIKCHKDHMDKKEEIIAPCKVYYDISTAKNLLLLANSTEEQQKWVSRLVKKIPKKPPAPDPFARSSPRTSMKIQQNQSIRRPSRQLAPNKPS

ARK5(h) = molecular target: T2, ARK5(h) (Homo sapiens, UniProt O60285)
T2 sequence (O60285 1-661): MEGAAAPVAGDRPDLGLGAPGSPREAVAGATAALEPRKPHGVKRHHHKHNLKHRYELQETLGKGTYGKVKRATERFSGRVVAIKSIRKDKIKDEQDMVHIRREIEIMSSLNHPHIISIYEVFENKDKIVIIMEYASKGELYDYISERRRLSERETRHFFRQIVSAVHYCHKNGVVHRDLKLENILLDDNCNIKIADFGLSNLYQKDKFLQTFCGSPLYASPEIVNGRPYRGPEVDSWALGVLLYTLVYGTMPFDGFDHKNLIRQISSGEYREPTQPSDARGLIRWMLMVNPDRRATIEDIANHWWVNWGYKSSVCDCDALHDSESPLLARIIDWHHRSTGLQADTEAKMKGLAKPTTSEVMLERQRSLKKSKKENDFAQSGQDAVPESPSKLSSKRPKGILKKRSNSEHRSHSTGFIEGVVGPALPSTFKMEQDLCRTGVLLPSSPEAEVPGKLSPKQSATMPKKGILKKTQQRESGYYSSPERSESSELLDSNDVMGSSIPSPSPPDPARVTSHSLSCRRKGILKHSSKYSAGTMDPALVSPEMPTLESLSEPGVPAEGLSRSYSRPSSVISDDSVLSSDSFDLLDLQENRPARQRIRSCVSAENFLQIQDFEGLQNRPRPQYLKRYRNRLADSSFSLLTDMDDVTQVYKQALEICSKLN

MuSK(h) = molecular target: T3, MuSK(h) (Homo sapiens, UniProt O15146)
T3 sequence (O15146 24-869): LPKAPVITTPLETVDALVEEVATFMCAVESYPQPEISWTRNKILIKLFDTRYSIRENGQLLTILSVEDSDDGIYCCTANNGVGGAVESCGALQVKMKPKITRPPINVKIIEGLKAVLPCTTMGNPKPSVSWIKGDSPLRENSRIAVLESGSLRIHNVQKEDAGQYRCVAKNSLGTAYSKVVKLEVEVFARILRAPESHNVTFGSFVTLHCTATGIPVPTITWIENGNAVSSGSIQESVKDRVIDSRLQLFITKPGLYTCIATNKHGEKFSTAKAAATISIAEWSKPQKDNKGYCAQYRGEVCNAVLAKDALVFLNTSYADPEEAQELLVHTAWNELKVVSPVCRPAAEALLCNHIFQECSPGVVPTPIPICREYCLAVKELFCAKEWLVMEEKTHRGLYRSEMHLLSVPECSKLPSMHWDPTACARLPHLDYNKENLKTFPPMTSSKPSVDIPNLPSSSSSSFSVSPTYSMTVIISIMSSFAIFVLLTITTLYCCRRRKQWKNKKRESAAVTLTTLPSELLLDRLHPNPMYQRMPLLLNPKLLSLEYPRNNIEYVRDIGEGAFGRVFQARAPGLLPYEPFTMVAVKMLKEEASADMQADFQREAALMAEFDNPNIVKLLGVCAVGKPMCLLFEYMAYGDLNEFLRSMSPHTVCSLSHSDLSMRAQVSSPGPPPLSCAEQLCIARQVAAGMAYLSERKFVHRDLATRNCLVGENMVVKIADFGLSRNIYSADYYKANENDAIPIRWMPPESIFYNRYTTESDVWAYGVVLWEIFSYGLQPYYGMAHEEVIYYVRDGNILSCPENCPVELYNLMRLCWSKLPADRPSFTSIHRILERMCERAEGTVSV

CDK2/cyclinE(h) = CDK2/cyclinE(h) (Homo sapiens, UniProt P24941)
JAK2(h) = JAK2(h) (Homo sapiens, UniProt O60674)
Chain of JAK2(h) (O60674 whole entry): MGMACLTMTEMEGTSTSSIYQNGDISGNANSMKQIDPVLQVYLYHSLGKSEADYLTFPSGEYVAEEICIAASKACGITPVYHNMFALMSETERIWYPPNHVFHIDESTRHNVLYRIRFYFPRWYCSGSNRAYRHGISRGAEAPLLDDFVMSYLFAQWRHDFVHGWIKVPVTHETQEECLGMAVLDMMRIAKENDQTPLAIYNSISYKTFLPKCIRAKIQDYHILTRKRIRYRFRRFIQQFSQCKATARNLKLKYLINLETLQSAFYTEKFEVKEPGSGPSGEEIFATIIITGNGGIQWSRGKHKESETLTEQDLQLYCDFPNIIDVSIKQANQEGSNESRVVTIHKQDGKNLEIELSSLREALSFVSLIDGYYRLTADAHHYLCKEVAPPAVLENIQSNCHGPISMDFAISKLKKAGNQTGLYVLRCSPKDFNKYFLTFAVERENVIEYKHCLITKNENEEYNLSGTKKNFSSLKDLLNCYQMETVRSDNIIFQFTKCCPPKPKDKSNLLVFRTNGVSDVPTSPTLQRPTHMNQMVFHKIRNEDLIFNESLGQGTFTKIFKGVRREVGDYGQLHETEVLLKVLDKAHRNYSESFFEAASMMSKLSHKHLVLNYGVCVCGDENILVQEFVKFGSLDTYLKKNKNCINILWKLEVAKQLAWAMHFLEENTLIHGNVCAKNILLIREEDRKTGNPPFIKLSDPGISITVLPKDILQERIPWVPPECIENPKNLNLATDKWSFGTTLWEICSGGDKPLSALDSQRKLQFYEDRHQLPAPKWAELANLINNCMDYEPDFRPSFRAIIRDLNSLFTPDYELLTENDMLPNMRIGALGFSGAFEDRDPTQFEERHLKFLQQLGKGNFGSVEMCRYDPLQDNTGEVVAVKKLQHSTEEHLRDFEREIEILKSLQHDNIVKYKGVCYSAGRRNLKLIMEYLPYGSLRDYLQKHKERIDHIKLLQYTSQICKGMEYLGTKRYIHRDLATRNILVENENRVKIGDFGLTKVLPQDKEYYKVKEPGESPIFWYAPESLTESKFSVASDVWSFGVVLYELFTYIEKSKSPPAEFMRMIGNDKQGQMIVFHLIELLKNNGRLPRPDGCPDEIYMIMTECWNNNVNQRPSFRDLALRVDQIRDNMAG

PAK5(h) = PAK5(h) (Homo sapiens, UniProt Q9P286)
Chain of PAK5(h) (Q9P286 whole entry): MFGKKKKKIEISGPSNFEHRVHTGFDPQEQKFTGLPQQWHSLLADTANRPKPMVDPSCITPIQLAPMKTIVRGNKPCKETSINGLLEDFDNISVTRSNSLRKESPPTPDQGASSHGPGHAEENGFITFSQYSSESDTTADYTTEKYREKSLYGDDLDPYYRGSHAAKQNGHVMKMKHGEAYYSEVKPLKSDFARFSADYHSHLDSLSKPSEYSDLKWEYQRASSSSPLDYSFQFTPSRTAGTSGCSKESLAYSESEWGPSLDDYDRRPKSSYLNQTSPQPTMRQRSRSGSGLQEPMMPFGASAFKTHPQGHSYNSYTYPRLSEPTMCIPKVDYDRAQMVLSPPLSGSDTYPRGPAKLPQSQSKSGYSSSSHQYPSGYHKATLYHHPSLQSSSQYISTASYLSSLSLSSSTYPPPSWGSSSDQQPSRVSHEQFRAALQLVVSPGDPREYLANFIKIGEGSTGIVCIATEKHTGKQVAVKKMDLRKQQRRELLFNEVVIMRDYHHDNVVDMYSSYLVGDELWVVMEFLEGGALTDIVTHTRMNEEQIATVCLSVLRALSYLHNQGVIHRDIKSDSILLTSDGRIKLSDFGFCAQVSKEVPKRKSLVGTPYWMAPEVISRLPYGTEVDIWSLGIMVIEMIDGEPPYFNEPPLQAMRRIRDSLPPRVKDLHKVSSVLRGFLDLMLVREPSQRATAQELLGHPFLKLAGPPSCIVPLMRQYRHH

STK33(h) = STK33(h) (Homo sapiens, UniProt Q9BYT3)
Chain of STK33(h) (Q9BYT3 whole entry): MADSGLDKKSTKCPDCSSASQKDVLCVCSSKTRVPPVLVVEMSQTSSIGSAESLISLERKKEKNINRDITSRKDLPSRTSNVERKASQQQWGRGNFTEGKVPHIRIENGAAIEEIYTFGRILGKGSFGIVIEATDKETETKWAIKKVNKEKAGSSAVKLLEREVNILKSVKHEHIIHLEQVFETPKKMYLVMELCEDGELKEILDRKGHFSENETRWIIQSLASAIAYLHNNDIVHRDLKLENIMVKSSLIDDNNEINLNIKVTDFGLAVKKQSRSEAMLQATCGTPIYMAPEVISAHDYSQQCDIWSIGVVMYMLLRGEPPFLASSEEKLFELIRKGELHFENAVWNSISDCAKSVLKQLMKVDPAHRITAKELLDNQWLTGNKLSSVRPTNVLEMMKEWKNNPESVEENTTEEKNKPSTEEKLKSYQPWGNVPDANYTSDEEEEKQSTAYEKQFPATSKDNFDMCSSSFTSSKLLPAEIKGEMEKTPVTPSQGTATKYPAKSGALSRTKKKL

IGF-1R(h), activated = IGF-1R(h), activated (Homo sapiens, UniProt P08069)
EGFR(L858R)(h) = EGFR(L858R)(h) (Homo sapiens, UniProt P00533, L858R)

Row | Sequence | % activity (ALK4(h)) | % activity (ROCK-II(h)) | % activity (ARK5(h)) | % activity (MuSK(h)) | % activity (CDK2/cyclinE(h)) | % activity (JAK2(h)) | % activity (PAK5(h)) | % activity (STK33(h)) | % activity (IGF-1R(h), activated) | % activity (EGFR(L858R)(h))
1 | FAKLAARLYRKALARQLGVAA [MMI-0300] | 140% | 74% | 78% | 93% | 94% | 133% | 110% | 45% | 80% | 
2 | YARAAARQARAKALNRQLGVA [MMI-0200] | 152% | 85% | 93% |  |  | 131% | 100% | 98% | 94% | 120%
3 | KAFAKLAARLYRKALARQLGVAA [MMI-0400] | 130% | 77% | 69% | 93% | 83% |  |  | 52% | 77% | 52%
4 | HRRIKAWLKKIKALARQLGVAA [MMI-0500] | 81% | 2% | 20% | 27% | 19% | 49% | 125% | 16% | 45% | 26%
